Laboratory results published in patent publication US20140065645.

Target: T1, FITC-labeled polypeptide linker, coupled to a bead
T1 chain: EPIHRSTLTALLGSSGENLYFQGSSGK

B1: Tobacco etch virus (TEV) protease (protein)
chain: GESLFKGPRDYNPISSTICHLTNESDGHTTSLYGIGFGPFIITNKHLFRRNNGTLLVQSLHGVFKVKNTTTLQQHLIDGRDMIIIRMPKDFPPFPQKLKFREPQREERICLVTTNFQTKSMSSMVSDTSCTFPSSDGIFWKHWIQTKDGQCGSPLVSTRDGFIVGIHSASNFTNTNNYFTSVPKNFMELLTNQEAQQWVSGWRLNADSVLWGGHKVFMSKPEEPFQPVKEATQLMNELVYSQ
  Intensity of Signal (FITC fluorescence of the linker-bead complex after 1 hour with TEV protease, 1:1 by mass): 10.3
  Intensity of Signal (FITC fluorescence of the linker-bead complex after 1 hour with TEV protease, 1:2 by mass): 9
  Ratio of Signal/Background Signal (1:1 TEV protease): 1.24
  Ratio of Signal/Background Signal (1:2 TEV protease): 1.08
  cleavage of the polypeptide linker: Most polypeptide linkers were cleaved when the mass of the added enzyme was twice the mass of the polypeptide linker.
